The values below are quoted from earlier work in article PMC3253530.

Where two headings read alike, the source gives them in different places.

In one data set the target is LRP-1 (Homo sapiens) (UniProt Q07954).
The target in data set [1] is PTPζ (Homo sapiens) (UniProt P23471).
The target is the same in data set [2]. The source holds these as a separate data set.

Chain of UniProt P23471 (P23471 25-1636): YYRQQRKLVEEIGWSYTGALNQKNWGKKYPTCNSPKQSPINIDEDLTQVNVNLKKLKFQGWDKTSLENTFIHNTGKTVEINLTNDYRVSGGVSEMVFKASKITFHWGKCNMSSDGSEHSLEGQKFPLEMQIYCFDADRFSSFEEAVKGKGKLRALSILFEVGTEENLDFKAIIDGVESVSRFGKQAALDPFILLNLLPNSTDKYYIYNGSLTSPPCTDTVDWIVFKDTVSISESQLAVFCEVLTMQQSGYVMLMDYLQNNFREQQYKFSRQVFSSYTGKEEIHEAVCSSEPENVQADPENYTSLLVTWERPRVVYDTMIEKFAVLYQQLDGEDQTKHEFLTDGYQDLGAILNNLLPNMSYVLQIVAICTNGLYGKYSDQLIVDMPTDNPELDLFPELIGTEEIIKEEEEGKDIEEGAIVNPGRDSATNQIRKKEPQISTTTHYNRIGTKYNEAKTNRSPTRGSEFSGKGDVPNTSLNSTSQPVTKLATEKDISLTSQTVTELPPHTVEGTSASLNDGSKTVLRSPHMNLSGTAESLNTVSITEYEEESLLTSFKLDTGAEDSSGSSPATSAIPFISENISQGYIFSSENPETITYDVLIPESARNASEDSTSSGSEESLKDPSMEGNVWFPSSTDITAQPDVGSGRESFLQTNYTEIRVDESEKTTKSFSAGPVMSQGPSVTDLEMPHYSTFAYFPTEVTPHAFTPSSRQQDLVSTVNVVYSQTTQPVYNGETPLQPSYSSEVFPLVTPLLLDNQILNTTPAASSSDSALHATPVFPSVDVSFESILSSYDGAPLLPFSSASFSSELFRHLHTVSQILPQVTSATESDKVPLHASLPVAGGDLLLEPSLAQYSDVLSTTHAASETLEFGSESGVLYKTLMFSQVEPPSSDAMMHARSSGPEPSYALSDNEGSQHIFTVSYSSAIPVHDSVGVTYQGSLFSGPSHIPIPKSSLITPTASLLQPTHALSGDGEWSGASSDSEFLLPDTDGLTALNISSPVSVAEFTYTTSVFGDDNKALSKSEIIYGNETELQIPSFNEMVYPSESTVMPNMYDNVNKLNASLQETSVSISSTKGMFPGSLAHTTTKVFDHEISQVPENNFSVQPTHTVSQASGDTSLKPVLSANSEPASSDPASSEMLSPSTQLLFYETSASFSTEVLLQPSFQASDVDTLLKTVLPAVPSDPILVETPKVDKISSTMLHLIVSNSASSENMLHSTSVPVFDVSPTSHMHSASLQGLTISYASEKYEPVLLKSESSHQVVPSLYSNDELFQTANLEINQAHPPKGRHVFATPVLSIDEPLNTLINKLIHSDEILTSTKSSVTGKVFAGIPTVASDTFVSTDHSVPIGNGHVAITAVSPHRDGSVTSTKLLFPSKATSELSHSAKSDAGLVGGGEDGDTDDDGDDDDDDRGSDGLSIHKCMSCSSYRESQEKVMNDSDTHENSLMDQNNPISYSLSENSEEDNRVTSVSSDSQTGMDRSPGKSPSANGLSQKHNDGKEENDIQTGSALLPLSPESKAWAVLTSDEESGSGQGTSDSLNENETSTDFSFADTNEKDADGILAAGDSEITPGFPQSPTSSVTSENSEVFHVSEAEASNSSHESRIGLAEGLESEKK

With Midkine (from UniProt P21741), the equilibrium dissociation constant (Kd) with LRP-1 (Homo sapiens) was 3.5 nM; in the data set with PTPζ (Homo sapiens) [1], 0.56 nM; with PTPζ (Homo sapiens) [2], 8.8 nM.

One may read the Kd as the concentration at which binding is half-saturated.
